The assay concerns the target biotin-ahx-ahx-EPQpYEEIPIYL (biotinylated pTyr peptide derived from the protein MidT). Kind of assay: BLI; Octet RED96 (ForteBio); biotinylated peptides immobilised on a streptavidin biosensor; SH2 variants at 300, 150 and 0 nM. For orientation: Biolayer interferometry detects binding as a change in optical thickness at a sensor tip.

The Kd is a measure of binding affinity in units of concentration.

“SH2-WT (wild-type Fyn SH2 domain), 6xHis-tagged protein (from UniProt P06241 149-246) (domain or fragment)” returned a Kd of 267 nM.

The record behind these values is publication PMC9204161.
